B1: Retinoic acid receptor alpha (Homo sapiens), P10276 (parent)
chain: MASNSSSCPTPGGGHLNGYPVPPYAFFFPPMLGGLSPPGALTTLQHQLPVSGYSTPSPATIETQSSSSEEIVPSPPSPPPLPRIYKPCFVCQDKSSGYHYGVSACEGCKGFFRRSIQKNMVYTCHRDKNCIINKVTRNRCQYCRLQKCFEVGMSKESVRNDRNKKKKEVPKPECSESYTLTPEVGELIEKVRKAHQETFPALCQLGKYTTNNSSEQRVSLDIDLWDKFSELSTKCIIKTVEFAKQLPGFTTLTIADQITLLKAACLDILILRICTRYTPEQDTMTFSDGLTLNRTQMHNAGFGPLTDLVFAFANQLLPLEMDDAETGLLSAICLICGDRQDLEQPDRVDMLQEPLLEALKVYVRKRRPSRPHMFPKMLMKITDLRSISAKGAERVITLKMEIPGSMPPLIQEMLENSEGLDTLSGQPGGGGRDGGGLAPPPGSCSPSLSPSSNRSSPATHSP

Variants of: B1
Conditions: with ncor1_human NCOR1, O75376
Chain of ncor1_human NCOR1, O75376 (O75376 whole entry): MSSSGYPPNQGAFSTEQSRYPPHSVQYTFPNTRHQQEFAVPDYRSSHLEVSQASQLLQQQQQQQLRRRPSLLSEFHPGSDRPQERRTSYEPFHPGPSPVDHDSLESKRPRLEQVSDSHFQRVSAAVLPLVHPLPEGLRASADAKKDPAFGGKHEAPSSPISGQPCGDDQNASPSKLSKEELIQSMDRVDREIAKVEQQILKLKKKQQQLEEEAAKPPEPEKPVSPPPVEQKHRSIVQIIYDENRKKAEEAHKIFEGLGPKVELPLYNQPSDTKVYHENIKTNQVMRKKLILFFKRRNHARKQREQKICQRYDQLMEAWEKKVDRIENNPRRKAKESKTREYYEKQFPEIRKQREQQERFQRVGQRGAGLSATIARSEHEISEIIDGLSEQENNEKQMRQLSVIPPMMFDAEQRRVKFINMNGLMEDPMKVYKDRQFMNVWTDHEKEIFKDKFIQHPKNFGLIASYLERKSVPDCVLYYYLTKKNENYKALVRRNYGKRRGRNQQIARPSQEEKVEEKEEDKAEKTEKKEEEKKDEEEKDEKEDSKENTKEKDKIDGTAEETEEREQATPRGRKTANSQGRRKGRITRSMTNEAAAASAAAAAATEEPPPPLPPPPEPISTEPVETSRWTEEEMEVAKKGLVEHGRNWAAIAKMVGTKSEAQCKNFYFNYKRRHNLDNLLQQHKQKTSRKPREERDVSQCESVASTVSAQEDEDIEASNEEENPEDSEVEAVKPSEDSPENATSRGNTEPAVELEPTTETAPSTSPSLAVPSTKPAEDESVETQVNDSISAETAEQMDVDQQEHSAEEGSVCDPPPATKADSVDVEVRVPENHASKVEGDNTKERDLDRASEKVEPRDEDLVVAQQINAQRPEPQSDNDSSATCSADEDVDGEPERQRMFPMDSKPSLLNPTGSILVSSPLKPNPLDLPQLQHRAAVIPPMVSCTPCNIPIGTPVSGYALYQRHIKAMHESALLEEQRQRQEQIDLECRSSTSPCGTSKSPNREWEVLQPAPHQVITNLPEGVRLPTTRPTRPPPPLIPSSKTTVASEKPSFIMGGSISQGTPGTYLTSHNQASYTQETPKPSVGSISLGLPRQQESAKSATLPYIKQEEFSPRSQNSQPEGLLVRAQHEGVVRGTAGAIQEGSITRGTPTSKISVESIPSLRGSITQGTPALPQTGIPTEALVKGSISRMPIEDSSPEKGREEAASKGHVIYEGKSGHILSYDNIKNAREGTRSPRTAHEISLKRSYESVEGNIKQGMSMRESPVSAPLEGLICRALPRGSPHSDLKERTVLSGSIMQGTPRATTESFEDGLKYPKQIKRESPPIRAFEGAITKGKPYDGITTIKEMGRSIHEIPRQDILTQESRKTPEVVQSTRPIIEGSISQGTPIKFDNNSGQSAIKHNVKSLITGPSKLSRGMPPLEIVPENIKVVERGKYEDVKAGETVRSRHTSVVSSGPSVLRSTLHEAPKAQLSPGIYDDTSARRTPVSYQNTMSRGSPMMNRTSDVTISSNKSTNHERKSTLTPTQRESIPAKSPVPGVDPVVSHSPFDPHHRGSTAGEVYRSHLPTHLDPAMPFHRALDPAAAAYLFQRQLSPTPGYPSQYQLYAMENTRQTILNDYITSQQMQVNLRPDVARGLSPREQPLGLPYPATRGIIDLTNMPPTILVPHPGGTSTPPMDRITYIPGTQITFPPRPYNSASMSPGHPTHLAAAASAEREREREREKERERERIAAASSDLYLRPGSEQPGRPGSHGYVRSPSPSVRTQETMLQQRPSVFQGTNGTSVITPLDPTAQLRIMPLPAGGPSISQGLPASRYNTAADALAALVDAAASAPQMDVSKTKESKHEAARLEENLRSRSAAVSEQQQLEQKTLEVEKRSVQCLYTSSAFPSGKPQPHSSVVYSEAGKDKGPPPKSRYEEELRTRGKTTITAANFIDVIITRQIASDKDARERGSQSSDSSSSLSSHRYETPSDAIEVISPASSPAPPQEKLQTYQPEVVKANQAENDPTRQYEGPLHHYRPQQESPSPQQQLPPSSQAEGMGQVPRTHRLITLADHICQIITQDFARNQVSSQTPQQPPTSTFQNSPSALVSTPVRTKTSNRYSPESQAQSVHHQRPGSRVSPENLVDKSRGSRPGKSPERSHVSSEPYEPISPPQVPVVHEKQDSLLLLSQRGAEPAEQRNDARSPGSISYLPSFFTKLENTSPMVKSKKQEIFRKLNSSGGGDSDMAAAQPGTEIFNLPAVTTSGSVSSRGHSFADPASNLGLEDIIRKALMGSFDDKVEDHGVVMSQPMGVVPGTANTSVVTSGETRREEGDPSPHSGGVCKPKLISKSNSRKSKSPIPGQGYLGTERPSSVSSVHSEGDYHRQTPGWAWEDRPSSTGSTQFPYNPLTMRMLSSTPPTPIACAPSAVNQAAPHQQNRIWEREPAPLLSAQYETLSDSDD

| effect of a mutation on the interaction | Variant |
| --- | --- |
| decreasing interaction | I396E |

Variants of: B1
Conditions: with ncor1_mouse Ncor1, Q60974

| effect of a mutation on the interaction | Variant |
| --- | --- |
| disrupting interaction | I396E |

Variants of: B1
Conditions: with ncor2_human NCOR2, Q9Y618
Chain of ncor2_human NCOR2, Q9Y618 (Q9Y618 whole entry): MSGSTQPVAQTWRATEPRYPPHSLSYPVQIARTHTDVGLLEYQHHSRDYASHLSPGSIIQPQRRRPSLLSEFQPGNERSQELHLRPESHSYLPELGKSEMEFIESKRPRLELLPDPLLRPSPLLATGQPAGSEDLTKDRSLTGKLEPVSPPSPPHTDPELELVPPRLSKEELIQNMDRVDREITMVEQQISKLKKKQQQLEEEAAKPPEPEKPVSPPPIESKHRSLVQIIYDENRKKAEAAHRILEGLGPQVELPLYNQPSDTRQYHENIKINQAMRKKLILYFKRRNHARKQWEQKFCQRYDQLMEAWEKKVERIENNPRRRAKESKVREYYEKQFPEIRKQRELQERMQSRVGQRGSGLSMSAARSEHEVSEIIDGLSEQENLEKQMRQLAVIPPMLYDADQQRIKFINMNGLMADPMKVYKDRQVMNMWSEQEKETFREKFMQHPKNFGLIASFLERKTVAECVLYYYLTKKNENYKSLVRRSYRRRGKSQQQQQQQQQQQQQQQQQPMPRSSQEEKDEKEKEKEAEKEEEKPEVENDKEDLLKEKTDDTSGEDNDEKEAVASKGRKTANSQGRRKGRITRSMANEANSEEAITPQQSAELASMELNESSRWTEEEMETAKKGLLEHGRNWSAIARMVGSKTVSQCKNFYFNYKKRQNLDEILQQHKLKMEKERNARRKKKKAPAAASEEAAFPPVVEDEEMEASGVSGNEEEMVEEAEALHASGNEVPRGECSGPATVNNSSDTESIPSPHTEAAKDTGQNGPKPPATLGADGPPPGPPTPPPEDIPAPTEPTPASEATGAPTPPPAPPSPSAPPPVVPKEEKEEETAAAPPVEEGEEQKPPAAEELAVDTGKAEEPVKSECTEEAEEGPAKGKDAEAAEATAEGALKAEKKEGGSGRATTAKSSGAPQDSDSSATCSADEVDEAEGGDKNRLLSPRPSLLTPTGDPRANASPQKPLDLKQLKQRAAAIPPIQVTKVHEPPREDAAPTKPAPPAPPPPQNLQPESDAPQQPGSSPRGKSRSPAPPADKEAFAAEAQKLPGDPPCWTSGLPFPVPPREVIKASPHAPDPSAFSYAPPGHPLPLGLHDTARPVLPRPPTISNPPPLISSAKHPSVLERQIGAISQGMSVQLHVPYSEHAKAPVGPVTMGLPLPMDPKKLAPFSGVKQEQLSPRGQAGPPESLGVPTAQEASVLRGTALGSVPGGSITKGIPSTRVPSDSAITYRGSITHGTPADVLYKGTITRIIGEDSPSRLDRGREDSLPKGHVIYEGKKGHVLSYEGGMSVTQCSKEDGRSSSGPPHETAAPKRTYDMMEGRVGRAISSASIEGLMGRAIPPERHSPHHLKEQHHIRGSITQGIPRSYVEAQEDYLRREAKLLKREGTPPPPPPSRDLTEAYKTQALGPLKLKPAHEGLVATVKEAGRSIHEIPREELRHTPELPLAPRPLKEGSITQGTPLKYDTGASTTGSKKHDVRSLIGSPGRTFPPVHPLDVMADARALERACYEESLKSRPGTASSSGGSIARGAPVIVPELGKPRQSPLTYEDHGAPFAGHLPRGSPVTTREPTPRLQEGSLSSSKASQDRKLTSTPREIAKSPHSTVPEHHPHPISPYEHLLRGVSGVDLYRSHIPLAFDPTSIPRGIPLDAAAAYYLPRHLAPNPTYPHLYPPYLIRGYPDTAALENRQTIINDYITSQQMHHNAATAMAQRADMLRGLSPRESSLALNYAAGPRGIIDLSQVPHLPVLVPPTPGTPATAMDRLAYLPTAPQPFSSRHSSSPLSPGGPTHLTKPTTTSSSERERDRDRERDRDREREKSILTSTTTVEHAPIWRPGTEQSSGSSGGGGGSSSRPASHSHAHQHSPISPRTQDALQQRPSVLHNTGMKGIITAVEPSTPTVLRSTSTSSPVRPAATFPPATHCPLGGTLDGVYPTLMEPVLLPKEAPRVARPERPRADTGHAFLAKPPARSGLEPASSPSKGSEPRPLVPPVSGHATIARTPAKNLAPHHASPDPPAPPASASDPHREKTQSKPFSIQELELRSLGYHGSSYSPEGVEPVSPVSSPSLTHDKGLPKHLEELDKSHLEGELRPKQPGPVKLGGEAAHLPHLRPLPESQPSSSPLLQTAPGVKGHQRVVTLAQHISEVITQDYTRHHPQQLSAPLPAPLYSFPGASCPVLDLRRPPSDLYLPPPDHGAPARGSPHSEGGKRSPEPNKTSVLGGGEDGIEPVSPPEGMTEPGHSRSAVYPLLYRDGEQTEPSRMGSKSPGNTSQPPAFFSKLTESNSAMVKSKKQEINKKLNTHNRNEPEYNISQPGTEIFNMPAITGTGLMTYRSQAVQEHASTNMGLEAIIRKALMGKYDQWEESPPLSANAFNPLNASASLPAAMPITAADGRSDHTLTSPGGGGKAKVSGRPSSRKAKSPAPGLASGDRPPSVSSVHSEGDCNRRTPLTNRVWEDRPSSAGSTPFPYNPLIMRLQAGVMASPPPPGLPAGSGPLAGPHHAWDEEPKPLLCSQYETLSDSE

| effect of a mutation on the interaction | Variant |
| --- | --- |
| disrupting interaction | I396E |

Variants of: B1
Conditions: with ncor2_human NCOR2, Q9Y618
Remark: another data set of the same source

| effect of a mutation on the interaction | Variant |
| --- | --- |
| decreasing interaction | I396E |

From IntAct's records for PubMed 20543827
